Here are results for one molecule from article doi:10.1101/145276.

This data set has as its target T1, Mmi1 YTH domain (longer construct) (Schizosaccharomyces pombe, UniProt O74958 326-488).
T1 sequence: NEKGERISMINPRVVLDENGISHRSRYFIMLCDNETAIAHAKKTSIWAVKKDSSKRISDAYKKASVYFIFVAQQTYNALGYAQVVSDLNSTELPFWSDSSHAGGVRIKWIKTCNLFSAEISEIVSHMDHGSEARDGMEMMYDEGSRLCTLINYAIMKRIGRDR
Put plainly: ITC. (In ITC the heat of successive injections is recorded.)

Turning to AUUAAACA (ssRNA) [DSR 8-mer], the binding result is “binds”.
